Laboratory results as given in patent US20110300138A1 (published 2011).

Columns and labels:
[1] = target: TSH receptor (TSHR) coated on tubes (human) (UniProt P16473); assay: inhibition of 125I-K1-70 IgG binding to TSHR coated tubes; negative control 1 µg/mL in HBD serum pool; duplicate determination
[2] = target: human thyroid stimulating hormone receptor (TSHR), full length (human) (UniProt P16473); assay: 125I-K1-70 Fab (competitor) binding to TSHR coated tubes; negative control MAb 0.1 µg/mL in assay buffer
[3] = target: TSHR (thyroid stimulating hormone receptor), full length human (human) (UniProt P16473); assay: negative control; competitor ^125I-K1-70 IgG, TSHR coated tubes; 10 µg/mL in assay buffer
[4] = target: TSHR (full length) coated on tubes (human) (UniProt P16473); assay: inhibition of 125I-K1-18 Fab (competitor) binding to TSHR coated tubes; negative control 0.1 µg/mL in assay buffer
[5] = target: TSHR (thyroid stimulating hormone receptor), full length human (human) (UniProt P16473); assay: negative control; competitor ^125I-K1-70 IgG, TSHR coated tubes; 0.01 µg/mL in HBD
[6] = target: TSHR (thyroid stimulating hormone receptor), full length human (human) (UniProt P16473); assay: competitor ^125I-K1-70 IgG, TSHR coated tubes; 100 µg/mL in HBD
[7] = target: TSH receptor (full length human TSHR) (human) (UniProt P16473); assay: competition ELISA: inhibition of M22 Fab-peroxidase (competitor) binding to TSHR coated wells; test sample at 0.01 µg/mL diluted in assay buffer
[8] = target: TSHR (full length) coated on tubes (human) (UniProt P16473); assay: inhibition of 125I-K1-18 Fab (competitor) binding to TSHR coated tubes; test sample 0.01 µg/mL in assay buffer
[9] = target: TSH receptor (full length human TSHR) coated on tubes (human) (UniProt P16473); assay: 125I-TSH binding inhibition read against NIBSC 90/672; 100 ng/mL, in serum
[10] = target: thyroid stimulating hormone receptor (full length human TSHR) (human) (UniProt P16473); assay: ELISA: inhibition of M22 Fab-peroxidase (competitor) binding to TSHR coated wells; 0.01 µg/mL, diluted in assay buffer
[11] = target: human thyroid stimulating hormone receptor (TSHR), full length (human) (UniProt P16473); assay: 125I-K1-18 Fab competition, TSHR coated tubes; 100 µg/mL in assay buffer
[12] = target: thyroid stimulating hormone receptor (full length human TSHR) (human) (UniProt P16473); assay: ELISA: inhibition of M22 Fab-peroxidase (competitor) binding to TSHR coated wells; 0.01 µg/mL, diluted in HBD serum pool
[13] = target: human TSH receptor (full length) coated on ELISA plate wells (human) (UniProt P16473); assay: TSH-biotin binding inhibition ELISA, TSHR coated wells; 100 µg/mL in HBD serum pool
[14] = target: TSH receptor (TSHR) coated on tubes (human) (UniProt P16473); assay: inhibition of 125I-K1-70 IgG binding to TSHR coated tubes; sample 1 µg/mL in assay buffer

5B3 IgG (antibody)
Inhibition of binding (%) [1]: 0% | Inhibition of binding (%) [2]: 2.2% | Inhibition of binding (%) [3]: 2.3% | Inhibition of binding (%) [4]: -3.6% | Inhibition of binding (%) [5]: -5.8%

9D33 IgG (antibody)
Inhibition of binding (%) [6]: 51.1% | Inhibition of binding (%) [7]: 14.8% | Inhibition of binding (%) [8]: 7.9%

M22 IgG (antibody)
units/L [9]: 9.9 units/L | units/mg [9]: 99 units/mg

B1: 5C9 IgG (antibody, from another filing, V domains shown)
VH: EVQLVESGGGLIQPGGSLRLSCAASGFTVSSNYMSWVRQAPGKGLEWVSVTYSGGSTSYADSVKGRFTISRDNSKNTLYLQMNSLRAEDTAVYYCARGGRYCSSISCYARSGCDYWGQGTLVTVSS
VL: AIQMTQSPSSLSASVGDRVTITCRASQSISNYLNWYQQKPGKAPKLLIYAASSLQSGVPSRFSGSGSGTDFTLTISSLQPEDFATYYCQQSYSSPSTTFGQGTKLEIK
Inhibition of binding (%) [10]: 0.6% | Inhibition of binding (%) [11]: 85.2% | Inhibition of binding (%) [12]: 0.9% | % inhibition of TSH-biotin binding [13]: 48.6% | Inhibition of binding (%) [14]: 56.4%
